Reference: patent publication US20250011433A1 (GLIKNIK, published 2025)
Numbering of substitutions follows the chain as printed. Numbers in names are those of the source. Each block holds one binder with its values, some of them ahead of it.

Key:
FcγRI [1] = target: T1, FcγRI (UniProt P12314 16-288); experiment: BLI (Octet)
T1 construct: also called CD64
Description: (§1) Binding of complement-preferential stradomers or parent stradomer G045c to FcγRI, FcγRIIb, FcγRIIIa, FcγRIIa, or FcRn was assessed. RU values of dissociation were measured by biolayer interferometry using a ForteBio Octet instrument. His-tagged receptor proteins were bound to the sensor tip in 1× kinetic analysis buffer from ForteBio after which the on rate of the receptor/protein was measured by transferring the sensor tip to a 1× kinetics buffer containing the purified stradomer of choice. Off rate was measured by transferring the sensor tip to a 1× kinetics buffer, and RU value was calculated from the measured maximum binding using the ForteBio software. Biolayer interferometry detects the binding between a ligand immobilized on the biosensor tip surface and an analyte in solution. When binding occurs it produces an increase in optical thickness at the biosensor tip, which results in a wavelength shift (detected as a response unit of “RU”). The maximum binding level (RU max) is the maximum possible amount of sample binding at equilibrium that saturates the amount of ligand on the sensor surface. The RU 300 is the residual sample binding after 300 seconds of dissociation and is useful to characterize the rate of dissociation of the test article from the test ligand.

FcγRIIb [2] = target: T2, FcγRIIb (UniProt P31994 46-217, limits assumed); experiment: BLI (Octet)
T2 sequence (looked up): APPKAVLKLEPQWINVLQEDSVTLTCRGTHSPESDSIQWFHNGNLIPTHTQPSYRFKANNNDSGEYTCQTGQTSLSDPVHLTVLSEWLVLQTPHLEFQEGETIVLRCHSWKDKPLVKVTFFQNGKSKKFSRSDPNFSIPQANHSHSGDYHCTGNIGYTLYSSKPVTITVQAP
Description: as §1

C1q = target: T3, C1q (UniProt P02745 23-245; P02746 28-253; P02747 29-245); experiment: ELISA on coated C1q
T3 construct: bought C1q coated on ELISA plates at 1 µg/ml; also called complement C1q; complement factor C1q
T3 sequence (P02745 23-245 limits assumed, chain 1 of 3): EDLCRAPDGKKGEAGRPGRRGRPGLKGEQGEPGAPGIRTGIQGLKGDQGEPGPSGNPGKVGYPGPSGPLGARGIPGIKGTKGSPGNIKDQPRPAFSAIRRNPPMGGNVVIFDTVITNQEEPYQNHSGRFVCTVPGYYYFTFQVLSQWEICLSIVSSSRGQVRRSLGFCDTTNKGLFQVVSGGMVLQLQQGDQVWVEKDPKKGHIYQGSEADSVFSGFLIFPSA
T3 sequence (P02746 28-253 limits assumed, chain 2 of 3): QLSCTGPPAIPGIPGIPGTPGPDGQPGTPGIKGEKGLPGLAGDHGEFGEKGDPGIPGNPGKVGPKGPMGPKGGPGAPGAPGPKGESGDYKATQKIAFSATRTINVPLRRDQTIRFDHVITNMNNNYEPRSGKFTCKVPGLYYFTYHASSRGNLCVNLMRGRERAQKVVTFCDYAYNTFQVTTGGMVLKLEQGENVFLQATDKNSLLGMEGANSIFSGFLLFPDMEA
T3 sequence (P02747 29-245 limits assumed, chain 3 of 3): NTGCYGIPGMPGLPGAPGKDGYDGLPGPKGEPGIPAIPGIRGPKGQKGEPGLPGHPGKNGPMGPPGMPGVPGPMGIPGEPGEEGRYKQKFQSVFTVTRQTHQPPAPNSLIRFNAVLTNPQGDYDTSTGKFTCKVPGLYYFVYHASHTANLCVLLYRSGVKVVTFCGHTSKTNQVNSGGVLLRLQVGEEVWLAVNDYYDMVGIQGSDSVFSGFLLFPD
Description: For C1q binding, 96 well plates were coated with C1q (Sigma Cat #: C1740 1 μg/ml) overnight in PBS. After coating, plates were washed 3 times with standard wash buffer (iX PBS+0.05% Tween 20) and blocked with blocking buffer (1% BSA+1× PBS+0.05% Tween 20) for 2 hours at RT. Following blocking, plates were incubated with compound diluted in blocking buffer 100 μL/well and washed 3 times with standard washing buffer. C1q-bound compound was detected by incubation with 1:5000 biotinylated mouse anti-human IgG1(Cat #555869, BD Biosciences) and Streptavidin-HRP (Cat #: 7100-05 Southern Biotech) (100 μl/well) for 1 hour at room temperature followed by washing 3 times with washing buffer, after which color was developed using the standard TMB method according to manufacturer's protocol for 15 minutes. Absorbance was read at 450 nm.

FcγRIIa = target: T4, FcγRIIa (UniProt P12318 36-218, limits assumed); experiment: BLI (Octet); legend: - indicates no binding
T4 sequence (looked up): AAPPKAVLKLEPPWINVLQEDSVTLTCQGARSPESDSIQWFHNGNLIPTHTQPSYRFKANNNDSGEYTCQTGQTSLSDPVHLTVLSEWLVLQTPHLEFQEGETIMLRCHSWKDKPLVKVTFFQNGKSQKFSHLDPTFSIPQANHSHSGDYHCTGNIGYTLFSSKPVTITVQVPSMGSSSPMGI
Description: as §1

FcγRIIIa = FcγRIIIa (UniProt P08637 17-208); experiment: BLI (Octet); legend: - indicates no binding
FcγRIIIa, sequence (P08637 17-208 limits assumed): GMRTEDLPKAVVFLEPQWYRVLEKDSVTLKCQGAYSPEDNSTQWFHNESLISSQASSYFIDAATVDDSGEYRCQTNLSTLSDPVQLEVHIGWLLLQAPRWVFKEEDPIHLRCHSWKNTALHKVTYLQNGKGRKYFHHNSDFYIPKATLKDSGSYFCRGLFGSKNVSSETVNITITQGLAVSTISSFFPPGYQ
Description: as §1

C3 complement component = target: T5, C3 complement component (UniProt P01024 23-1663); experiment: ELISA on coated C3
T5 construct: bought protein coated on ELISA plates at 1 µg/ml

mouse FcγRIIb = target: T6, mouse FcγRIIb (mouse, UniProt P08101 30-207, limits assumed); experiment: BLI (Octet), FIG. 19 bottom panels
T6 sequence (looked up): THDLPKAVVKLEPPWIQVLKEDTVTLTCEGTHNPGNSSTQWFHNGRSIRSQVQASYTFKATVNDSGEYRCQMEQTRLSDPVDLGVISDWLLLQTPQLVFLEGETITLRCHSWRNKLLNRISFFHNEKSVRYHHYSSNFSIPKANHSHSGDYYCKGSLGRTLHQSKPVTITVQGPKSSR

mouse FcγRIII = target: T7, mouse FcγRIII (mouse, UniProt P08508 31-215, limits assumed); experiment: BLI (Octet), FIG. 19 bottom panels
T7 sequence (looked up): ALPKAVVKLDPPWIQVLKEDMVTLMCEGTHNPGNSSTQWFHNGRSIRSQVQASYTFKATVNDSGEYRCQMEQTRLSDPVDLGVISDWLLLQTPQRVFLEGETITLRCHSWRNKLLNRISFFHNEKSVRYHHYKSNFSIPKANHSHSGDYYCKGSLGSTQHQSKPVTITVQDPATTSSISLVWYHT

mouse FcγRIV = target: T8, mouse FcγRIV (mouse, UniProt A0A0B4J1G0 21-203); experiment: BLI (Octet), FIG. 19 bottom panels
T8 construct: not shown: any purification tag (e.g. His tag) on the soluble recombinant receptor used in biolayer interferometry; not described in the passages seen
T8 sequence: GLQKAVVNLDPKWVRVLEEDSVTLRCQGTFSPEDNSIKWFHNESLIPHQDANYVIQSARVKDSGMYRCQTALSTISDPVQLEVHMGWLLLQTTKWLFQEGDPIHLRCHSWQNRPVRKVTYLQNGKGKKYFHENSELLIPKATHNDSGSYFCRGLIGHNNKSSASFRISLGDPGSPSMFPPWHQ

FcγRIIb [3] = target: T2, FcγRIIb; experiment: BLI (Octet); legend: - indicates no binding
Description: as §1

FcγRI [4] = target: T1, FcγRI; experiment: BLI (Octet); legend: - indicates no binding
Description: as §1

T1 sequence (P12314 16-288 limits assumed): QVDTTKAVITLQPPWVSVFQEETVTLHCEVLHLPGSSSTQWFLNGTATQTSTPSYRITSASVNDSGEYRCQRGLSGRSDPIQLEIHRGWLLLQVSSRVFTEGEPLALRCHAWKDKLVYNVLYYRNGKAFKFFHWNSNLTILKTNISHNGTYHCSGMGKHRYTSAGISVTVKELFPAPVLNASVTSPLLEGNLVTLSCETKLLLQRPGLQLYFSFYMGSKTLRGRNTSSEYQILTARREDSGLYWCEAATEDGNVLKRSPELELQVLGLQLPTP

- binding result (FcγRI [1]): binds
- binding result (FcγRIIb [2]): binds
- binding result (C1q): binds
- binding result (FcγRIIa): no binding
- binding result (FcγRIIIa): no binding
B1: G994 (Fc fusion)
chain: EPKSCDKTHTCPPCPAPPLLRGPSVFLFPPKPKDTLMISRTPEVTCVVVDVEFEDPEVKFNWYVDGVEVHNAKTKPREEQYNSTYRVVSVLTVLHQDWLNGKEYKCKVTNKALPAPIEKTISKAKGQPREPQVYTLPPSRDELTKNQVSLTCLVKGFYPSDIAVEWESNGQPENNYKTTPPVLDSDGSFFLYSKLTVDKSRWQQGNVFSCSVMHEALHNHYTQKSLSLSPGKERKCCVECPPCP
notes: G045c background, E233P/G236R/S267E/H268F/S324T; leader 1-20 cleaved; also called G994 (DEL); G994 (EEM)

- binding result (FcγRI [1]): binds
- binding result (FcγRIIb [2]): binds
- binding result (C1q): binds
- binding result (mouse FcγRIIb): no binding
- binding result (mouse FcγRIII): no binding
- binding result (mouse FcγRIV): no binding
- binding result (FcγRIIIa): no binding
B2: G996 (Fc fusion)
chain: B1 chain with P18E
notes: G045c background, G236R/S267E/H268F/S324T; leader 1-20 cleaved
- binding result (C3 complement component): no binding (tested: 100 µg/ml top concentration)

- binding result (FcγRI [1]): binds
- binding result (FcγRIIb [2]): binds
- binding result (C1q): binds
- binding result (FcγRIIa): no binding
- binding result (FcγRIIIa): no binding
B3: G998 (Fc fusion)
chain: B1 chain with P18E, R21G, N82A
notes: G045c background, S267E/H268F/N297A/S324T; leader 1-20 cleaved; also called G998 (DEL); G998 (EEM)

- binding result (FcγRI [1]): binds
- binding result (C1q): binds
- binding result (FcγRIIb [3]): no binding
- binding result (FcγRIIIa): no binding
B4: G1033 (Fc fusion)
chain: B1 chain with P18E, L19A, L20A, R21G, N82A
notes: G045c background, L234A/L235A/S267E/H268F/N297A/S324T; leader 1-20 cleaved; also called G1033 (DEL); G1033 (EEM)

- binding result (FcγRI [4]): no binding
- binding result (FcγRIIIa): no binding
B5: G1022 (Fc fusion)
chain: EPKSCDKTHTCPPCPAPPVAGPSVFLFPPKPKDTLMISRTPEVTCVVVDVEFEDPEVKFNWYVDGVEVHNAKTKPREEQYASTYRVVSVLTVLHQDWLNGKEYKCKVTNKALPAPIEKTISKAKGQPREPQVYTLPPSRDELTKNQVSLTCLVKGFYPSDIAVEWESNGQPENNYKTTPPVLDSDGSFFLYSKLTVDKSRWQQGNVFSCSVMHEALHNHYTQKSLSLSPGKERKCCVECPPCP
notes: G045c background, E233P/L234V/L235A/S267E/H268F/N297A/S324T, G236 deleted; leader 1-20 cleaved

- binding result (FcγRIIb [2]): binds
- binding result (C1q): binds
- binding result (FcγRI [4]): no binding
- binding result (FcγRIIIa): no binding
B6: G1050 (Fc fusion)
chain: B5 chain with L112F
notes: G045c background, E233P/L234V/L235A/S267E/H268F/N297A/S324T/L328F, G236 deleted; leader 1-20 cleaved
